Measurements reported in patent US20030232756A1, “Ligands for G protein coupled receptor GPR7 and GPR8 and uses thereof” (Euroscreen, S.A., priority 2002, published 2003).

Columns and labels:
human GPR7 = biological target: T1, human GPR7 (Homo sapiens, UniProt P48145); experiment: Aequorin-based functional assay, WTA11 cells expressing GPR7; assay type: cell-based; settings: in words
T1 construct: expressed in transfected cells; host or cells: CHO-K1 clone WTA11 (mitochondrial apoaequorin + Galpha16)
T1 sequence (P48145 1-328): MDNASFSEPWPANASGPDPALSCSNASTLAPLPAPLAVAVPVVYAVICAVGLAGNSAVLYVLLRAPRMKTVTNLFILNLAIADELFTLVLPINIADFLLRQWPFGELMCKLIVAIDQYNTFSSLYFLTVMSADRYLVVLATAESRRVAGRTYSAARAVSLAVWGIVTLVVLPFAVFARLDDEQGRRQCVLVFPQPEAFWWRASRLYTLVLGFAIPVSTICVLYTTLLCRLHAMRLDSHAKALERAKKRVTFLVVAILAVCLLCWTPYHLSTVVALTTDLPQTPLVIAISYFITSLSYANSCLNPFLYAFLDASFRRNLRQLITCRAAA
Description: CHO—K1 cells (ATCC CRL-9618 (Bethesda, Md., USA)) were previously transfected with a plasmid encoding mitochondrial apoaequorin and Gα16. A clone obtained by limit dilution, called WTA11, was grown in Nutrient Mixture HAM's F12 medium supplemented with 10% fetal calf serum, 250 μg/ml zeocin, 100 units/ml penicillin and 100 μg/ml streptomycin. A bicistronic plasmid encoding the human GPR7 was transfected into WTA11 CHO—K1 cells, using Fugene 6 (Roche Diagnostics, Mannheim, Germany). Individual clones were selected two days after transfection with 400 μg/ml neomycin and GPR7-positive clones were confirmed by northern blotting, RT-PCR and sequencing.
Functional responses were analysed by recording the luminescence of aequorin following the addition of the ligand. In brief, cells were collected from plates with PBS containing 5 mM EDTA, pelleted, and resuspended at 10^7 cells/ml in DMEM-F12 medium and incubated with 5 μM coelenterainze H (Molecular Porbes) for 4 h at room temperature. Cells were then washed in DMEM-F12 medium and resuspended at a concentration of 2×10^6 cells/ml. Cells where then mixed with the ligand, and the light emission was recorded over 60 s using a Microlumat™ luminometer (Perkin Elmer). Results are expressed as relative light units (RLU) (FIG. 5).
(§1) In the experiments described in this section, the aequorin assay measured functional responses by recording the luminescence of aequorin in GPR7- and GPR8-expressing cells following addition of (potential) agonists, as previously described (Kotani, M. et al.). In brief, cells were collected from plates with PBS containing 5 mM EDTA, pelleted, resuspended at 5×10^6 cells/ml in DMEM-F12 medium containing 0.1% BSA, incubated with 5 μM coelenterazine H (Molecular Probes, Eugene, Oreg.) for 4 h at room temperature, and diluted in DMEM-F12 medium at a concentration of 5×10^5 cells/ml. Cells where then mixed with the ligands, and the light emission was recorded over 30 s using a Microlumat™ luminometer (Perkin Elmer, Norwalk, Conn.).

human GPR8 = biological target: T2, human GPR8 (Homo sapiens, UniProt P48146); experiment: Aequorin-based functional assay, WTA11 cells expressing GPR8; assay type: cell-based; settings: in words
T2 construct: expressed in transfected cells; host or cells: CHO-K1 clone WTA11 (apoaequorin + Galpha16)
T2 sequence (P48146 whole entry): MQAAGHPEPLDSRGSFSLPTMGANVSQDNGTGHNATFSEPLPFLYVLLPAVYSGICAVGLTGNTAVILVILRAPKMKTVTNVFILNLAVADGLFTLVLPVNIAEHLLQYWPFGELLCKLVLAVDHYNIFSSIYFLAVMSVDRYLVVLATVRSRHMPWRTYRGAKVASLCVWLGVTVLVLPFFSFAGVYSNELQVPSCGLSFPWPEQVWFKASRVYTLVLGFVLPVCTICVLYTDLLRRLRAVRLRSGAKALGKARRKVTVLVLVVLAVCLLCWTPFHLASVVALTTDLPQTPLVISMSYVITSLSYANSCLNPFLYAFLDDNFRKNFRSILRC
Description: as §1

Substance	activity in aequorin-based functional assay on GPR7 (human GPR7)	activity in aequorin-based functional assay on GPR8 (human GPR8)
SPYA (PYAR; UniProt Q8NG41 51-54, looked up, fragment) [pro-L7 [51-54], human peptide derived from the L7 precursor]	inactive	inactive
SPYLW (UniProt Q8N729 58-62, looked up, fragment) [pro-L8 [58-62], human peptide derived from the L8 precursor]	inactive	inactive
WYKPAAGHSSYSVGRAAGLL [pro-L7 [25-44], human peptide derived from the L7 precursor]	active	active
